This passage reports koff and Kd results from PMC11044963 (2024).

Where no end group is shown, it is not given here. The star is where a group is joined. FITC = O=C1OC2(c3ccc(O)cc3Oc3cc(O)ccc32)c2ccc(NC(=S)*)cc21

The target in assay [1] is biotinylated DCAF12 (Δ1–78) (human, UniProt Q5T6F0 79-453, biotin). Briefly: SPR.
Another assay deals with DDB1–DCAF12–DDA1 complex (human | , UniProt Q5T6F0 1-453; Q5T6F0 1-453; Q9BW61 1-102). The experiment in a line: FP.

The term koff denotes the rate constant with which the complex falls apart. Regarding LHEWVLREGEE [unlabeled MAGEA3 peptide], the dissociation rate constant (koff) in assay [1] was found to be 0.06 s⁻¹.

In assay [1], IRKPGESEE [unlabeled CCT5 peptide] gave a koff of 0.017 s⁻¹.

A word on the Kd: it is the free concentration of one partner at which half of the binding sites on the other are occupied at equilibrium, for simple one-to-one binding. Take {FITC}-IRKPGESEE [FITC-labeled CCT5 peptide]: the dissociation constant Kd with DDB1–DCAF12–DDA1 complex was determined as 130 nM.

The molecule {FITC}-LHEWVLREGEE [FITC-labeled MAGEA3 peptide] displayed a Kd with DDB1–DCAF12–DDA1 complex of 60 nM.
